This note sets out measurements from the FLAb antibody collection (doi:10.7554/elife.23156).

The labels stand for the following.
B1: scFv; the commonest letter at each place (parent)
chain 1: EVKLDETGGGLVQPGRPMKLSCVASGFTFSDYWMNWVRQSPEKGLEWVAQIRNKPYNYETYYSDSVKGRFTISRDDSKSSVYLQMNNLRVEDMGIYYCTGSYYGMDYWGQGTSVTVS
chain 2: DVVMTQTPLSLPVSLGDQASISCRSSQSLVHSNGNTYLRWYLQKPGQSPKVLIYKVSNRFSGVPDRFSGSGSGTDFTLKISRVEAEDLGVYFCSQSTHVPWTFGGGTKLEIK

The variants in the series “fluorescein” derive from B1. Description: Kd (Tite-Seq). To be noted: with fluorescein; format: scFv 4-4-20, heavy + light.
Series [1] covers variants of B1. Description: yeast surface expression (ratio to wild type); higher = more expressed. Particulars: format: scFv 4-4-20, heavy + light.

One may read the Kd as the concentration at which binding is half-saturated. chain 1 EVKLDETGGGLVQPGRPMKLSCVASGFTFSDYWMNWVRQSPEKGLEWVAQIRNKPYNYETYYSDSVKGRFTISRDDSKSSVYLQMNNLRVEDMGIYYCTHSYYGMDYWGQGTSVTVS chain 2 DVVMTQTPLSLPVSLGDQASISCRSSQSLVHSNGNTYLRWYLQKPGQSPKVLIYKVSNRFSGVPDRFSGSGSGTDFTLKISRVEAEDLGVYFCSQSTHVPWTFGGGTKLEIK [chain 1 G100H]: the dissociation constant Kd with fluorescein was no less than 10 µM. In addition, in series [1], the yeast surface expression is 0.432.
In the case of chain 1 EVKLDETGGGLVQPGRPMKLSCVASGFTFSDYWMNWVRQSPEKGLEWVAQIRNKPYNYETYYSDSVKGRFTISRDDSKSSVYLQMNNLRVEDMGIYYCTHSYYGMCYWGQGTSVTVS chain 2 DVVMTQTPLSLPVSLGDQASISCRSSQSLVHSNGNTYLRWYLQKPGQSPKVLIYKVSNRFSGVPDRFSGSGSGTDFTLKISRVEAEDLGVYFCSQSTHVPWTFGGGTKLEIK [chain 1 G100H D106C], the Kd with fluorescein is no less than 10 µM. Further, the yeast surface expression in series [1] was 0.222.
chain 1 EVKLDETGGGLVQPGRPMKLSCVASGFTFSDYWMNWVRQSPEKGLEWVAQIRNKPYNYETYYSDSVKGRFTISRDDSKSSVYLQMNNLRVEDMGIYYCTFSYYGMDIWGQGTSVTVS chain 2 DVVMTQTPLSLPVSLGDQASISCRSSQSLVHSNGNTYLRWYLQKPGQSPKVLIYKVSNRFSGVPDRFSGSGSGTDFTLKISRVEAEDLGVYFCSQSTHVPWTFGGGTKLEIK [chain 1 G100F Y107I]: in the series with fluorescein, the Kd is no less than 10 µM. Also, the yeast surface expression in series [1] is 0.947.
The like results for chain 1 EVKLDETGGGLVQPGRPMKLSCVASGFTFSDYWMNWVRQSPEKGLEWVAQIRNKPYNYETYYSDSVKGRFTISRDDSKSSVYLQMNNLRVEDMGIYYCTFSYYGMDTWGQGTSVTVS chain 2 DVVMTQTPLSLPVSLGDQASISCRSSQSLVHSNGNTYLRWYLQKPGQSPKVLIYKVSNRFSGVPDRFSGSGSGTDFTLKISRVEAEDLGVYFCSQSTHVPWTFGGGTKLEIK [chain 1 G100F Y107T] were, in that order, no less than 10 µM and 0.842.
The like results for chain 1 EVKLDETGGGLVQPGRPMKLSCVASGFTFSDYWMNWVRQSPEKGLEWVAQIRNKPYNYETYYSDSVKGRFTISRDDSKSSVYLQMNNLRVEDMGIYYCTFSDYGMDYWGQGTSVTVS chain 2 DVVMTQTPLSLPVSLGDQASISCRSSQSLVHSNGNTYLRWYLQKPGQSPKVLIYKVSNRFSGVPDRFSGSGSGTDFTLKISRVEAEDLGVYFCSQSTHVPWTFGGGTKLEIK [chain 1 G100F Y102D] were, in that order, no less than 10 µM and 0.974.
The like results for chain 1 EVKLDETGGGLVQPGRPMKLSCVASGFTFSDYWMNWVRQSPEKGLEWVAQIRNKPYNYETYYSDSVKGRFTISRDDSKSSVYLQMNNLRVEDMGIYYCTFSYYGMDYAGQGTSVTVS chain 2 DVVMTQTPLSLPVSLGDQASISCRSSQSLVHSNGNTYLRWYLQKPGQSPKVLIYKVSNRFSGVPDRFSGSGSGTDFTLKISRVEAEDLGVYFCSQSTHVPWTFGGGTKLEIK [chain 1 G100F W108A] were, in that order, no less than 10 µM and 0.671.
chain 1 EVKLDETGGGLVQPGRPMKLSCVASGFTFSDYWMNWVRQSPEKGLEWVAQIRNKPYNYETYYSDSVKGRFTISRDDSKSSVYLQMNNLRVEDMGIYYCTFSYYGMDYWVQGTSVTVS chain 2 DVVMTQTPLSLPVSLGDQASISCRSSQSLVHSNGNTYLRWYLQKPGQSPKVLIYKVSNRFSGVPDRFSGSGSGTDFTLKISRVEAEDLGVYFCSQSTHVPWTFGGGTKLEIK [chain 1 G100F G109V]: in the series with fluorescein, the Kd was no less than 10 µM. Besides, in series [1], the yeast surface expression came to 0.253.
As to chain 1 EVKLDETGGGLVQPGRPMKLSCVASGFTFSDYWMNWVRQSPEKGLEWVAQIRNKPYNYETYYSDSVKGRFTISRDDSKSSVYLQMNNLRVEDMGIYYCTFMYYGMDYWGQGTSVTVS chain 2 DVVMTQTPLSLPVSLGDQASISCRSSQSLVHSNGNTYLRWYLQKPGQSPKVLIYKVSNRFSGVPDRFSGSGSGTDFTLKISRVEAEDLGVYFCSQSTHVPWTFGGGTKLEIK [chain 1 G100F S101M], in the series with fluorescein, the Kd was no less than 10 µM. The yeast surface expression in series [1] was 0.704.
For chain 1 EVKLDETGGGLVQPGRPMKLSCVASGFTFSDYWMNWVRQSPEKGLEWVAQIRNKPYNYETYYSDSVKGRFTISRDDSKSSVYLQMNNLRVEDMGIYYCTFIYYGMDYWGQGTSVTVS chain 2 DVVMTQTPLSLPVSLGDQASISCRSSQSLVHSNGNTYLRWYLQKPGQSPKVLIYKVSNRFSGVPDRFSGSGSGTDFTLKISRVEAEDLGVYFCSQSTHVPWTFGGGTKLEIK [chain 1 G100F S101I], in that order: no less than 10 µM and 0.501.
For chain 1 EVKLDETGGGLVQPGRPMKLSCVASGFTFSDYWMNWVRQSPEKGLEWVAQIRNKPYNYETYYSDSVKGRFTISRDDSKSSVYLQMNNLRVEDMGIYYCTFSYYGDDYWGQGTSVTVS chain 2 DVVMTQTPLSLPVSLGDQASISCRSSQSLVHSNGNTYLRWYLQKPGQSPKVLIYKVSNRFSGVPDRFSGSGSGTDFTLKISRVEAEDLGVYFCSQSTHVPWTFGGGTKLEIK [chain 1 G100F M105D], in that order: no less than 10 µM and 0.573.
For chain 1 EVKLDETGGGLVQPGRPMKLSCVASGFTFSDYWMNWVRQSPEKGLEWVAQIRNKPYNYETYYSDSVKGRFTISRDDSKSSVYLQMNNLRVEDMGIYYCTFSYYGKDYWGQGTSVTVS chain 2 DVVMTQTPLSLPVSLGDQASISCRSSQSLVHSNGNTYLRWYLQKPGQSPKVLIYKVSNRFSGVPDRFSGSGSGTDFTLKISRVEAEDLGVYFCSQSTHVPWTFGGGTKLEIK [chain 1 G100F M105K], in that order: no less than 10 µM and 1.1.
Turning to chain 1 EVKLDETGGGLVQPGRPMKLSCVASGFTFSDYWMNWVRQSPEKGLEWVAQIRNKPYNYETYYSDSVKGRFTISRDDSKSSVYLQMNNLRVEDMGIYYCTFTYYYMDYWGQGTSVTVS chain 2 DVVMTQTPLSLPVSLGDQASISCRSSQSLVHSNGNTYLRWYLQKPGQSPKVLIYKVSNRFSGVPDRFSGSGSGTDFTLKISRVEAEDLGVYFCSQSTHVPWTFGGGTKLEIK [chain 1 G100F S101T G104Y], the Kd with fluorescein is no less than 10 µM. Further, the yeast surface expression in series [1] stood at 0.437.
